Laboratory results published in US20230226096A1 (Orna Therapeutics, Inc., priority 2020, published 2023).

B1: Jingmen picorna-like virus (nucleic acid)
DNA: TGTGTTTTTGTCAAGATAATTGTTCTGTGATTAACAGTGATTGTGGTTCGTGTAATGCGACGCAGTCAAATGCTAGTTTTGATGAAGTGTATGAGAGAGTGGAAAACTTATCTCATAAGAAGATTGAAGAGTGTGTAGATCAGGCTATTGATCGAGCTTCTAAGCTTCGTGATTACAAGCTTAATGTTCACAATGGCTCCCGACGGGAATCATCTGATCCTCTCTTTATTTCGCCCCATTCGTTGTTATCGCTTGGGGTATCTAAGTTTGTTGCGTTTGAGCAGCATCACAGTTTCGCTTCAGTTGAGTCTCTGAAGTTGCTTGCTCTGTCT
B2: Hubei picorna-like virus 2 (nucleic acid)
DNA: AGCAACTTCTTTCTGAAAACTAGCTAGAGTTCGACGATCTCTCTGGCTAATGACAAATAACCAATCAAAAAGTCAAATGTTCATGTATATATATATTTAGTAGTGACCTTTATTTAGAAAAACTTTAGATGATTTATCGTCAAGTTGCCCTTTGTGAAGCGATCAGCTTTTTATATCGTTTCATTTTTGTATACGTCTTAATTGACGTTGTAAGTACGTTTTGCATACCTCACATTGAGGATAGTATCGTTTCCTGACTAAGAAGTTAAACTAGTCTACCAATAGCAACCATATAGGATATAGCTTTGTTTTTAACAAGGTTTAATCTGATCTTATGCTCTTGCTTACGGTGTTTTATGTATAGAAAAGTTTTTATAAAAACTACATAATTGTCAAAAGAAAAAGCGTTACGTACTGACGCATTTATGTTCACAGTGTGACACAAACCTTCTATATTTTGATTGTAAAATAGGCTTTGCCTGACCATTTATCAAATACAAACTGTTTCAAACGCCTCTCCGAGCCATATTGGCCGACGCGAATCGACATAACAGGGTGAGTTTACAGCTGCAGTTGCAGCCGAGGATCCACTTATTTGAGAGAGAATTACTCTTAACGAAATTTTGAAGTCACTTCTACACAGTTAAGTCTGAGTAGGCGTTATCCAAACGTAAA
B3: Mouse Mosavirus (nucleic acid, listed as Mosavirus sp.)
DNA: GAAGTTGATCATGAACTTGGTTATTGGTGGAACGCACATGAACTCCCAACAATGATCTTGAAGACACAGCGTGGTAACAATTACCATGCCCTTGTGGCTGCCCAAGACATTGATGGCTATTGGGTGATTTATGATGAC
B4: Kunsagivirus 1 (nucleic acid, listed as Kunsagivirus sp.)
DNA: TTTCAAATCGGACTCCGGTAGTTATACCGGAGCCCGGTTTGGACGCTTGGGCCGCGTTAACAGCCCCCCACCCCTTTCCCACTGACTGATTTCTCGGATTGGACTCATTTGCATTGCTAACTCTGATTCTGGATTTCCCCGTTTATGTCGTCGCGGTCGGAAGTGCACGTACTTCGACGTTGATCTGATGGCGTTTGTTTCCAGGGGGGAGGTGGCGGCAGAAACGCCCCCGCCGTAAACTTCGGCGGGCCACGCCTGTCAAGCCACTCCCTGGGGCCGAGCGCCTGAGGTGATACAGAGAGATAAGCACACTGGGCGCTGACAACGCCCGGGACCTCAGTGAGAAGAGCAGTAGGGCCGTGTTTATGGGACTCCATTGGATATCCCCCGCTTGTCGGAACTCACGGCTACTCCGGGTTGGGAAGCCCGCGACTGGTACTGTACTGGGTGATAGCCTGGTGCCTTCCCTCTCACTGTTGTATGAAGGCTGAAAACCCCCT
B5: Miniopterus schreibersii picornavirus 1 (nucleic acid)
DNA: GTTGTCGACCCGTTGCTTGGTTTAAGCATGAGGTGGATTCCCCCGATTATGTCTACCCGTTACTATGGCGGGCGGTCGTTTCAGGGTGTTTCTACTGAGGACTGCACCAAGTCTTTATCTTTTATTCTCAGATCTCCGGCTGTTTGACGCTTGTAGGACAGCAGGACTATTTTCTCTTAATCTTTTTCTACCCACTAGGGTCCTATCCTAGTGGAGGGAGGGTGCCACCCCTTCTCTCTTTAGAGAGTGCGCCTGGCGGTCTTTCCGTCTCTGGAAAAAGGAGCACATGGCATGCTACAATTGGCACAAGAAAACAAGCTTTGCGGATTCTTTCTTTGTACTAGAGGAAGCTGTAGCGACCCTGTATGGCGAGCGGACTCCCCTCTCGGCGACGAGAGCCTCTCGGGCCAAAAGCCAAGTGTTAATAGCACCCATACAGGCGGCAGTACCCCACTGCCCTTTCTCAACATACAATGACTGATGAACCACTGTTGGTTTTTCTGACACCTTTGTAGTAGGATTCCAAGGAATGTCCTGAAGGTACCCTGTTAGCTTACGCGCAGGATCTGATCAGGAGTCTCTTTACAGTGCTGTACACTGTGCAAGGGATTAAAAATTGTTTGAGGAATCCCCGAGATAGTGGTCTATCTCTTCCTATTTTGTTTTACAGACACG
B6: Megirivirus C (nucleic acid)
DNA: TTCCCGACCGGTCTGGCAAACCGGACGGTTATCCTGGTTAGATGTCTGATGGTTGCTGGAACGTGGTGGCTACTGCTGCCACCTTCTGGCTTCCTTTAATGGGCATCTAGCTGGGTTCTTTGCCACAATCCATCTTACTCTCTTACCCATTTTCTATTACCCAGACTTGTTGTTAACTGGTAAAGTTGACCTACTGGCTTCGTTTTGAGACTATTCTGGTGTTGGTGGACACTCTTTCCACAAGTAGATTGTATGGAGTTCATGCTCGTTTTGAACCGGGAATGGCACAACCCGTAGTAGGATCTTGCCTCTGCCATACTAATCTGCGCCTGTTGCTTTTAGACTATGGGCTGCTAAGGATGACATTGGAACCCCTTTTTGGATATTCCATGTCAAGTCAACTGTTTCATCTGGTGTACGCTGGAAATCCTTGTTCCGAGGTCTTGTCTGGAGGTGGTGCTGAAATATTGCAAGCCACAGGCAGTTCCTTGGACTTGGTGCCGCTATCAGATGCTACACCCTCTATGGGCAAATGTTGAACCTTAGTGGACGCGTGAGATGGGAATCCACGCCGGCCATAGACTGGCTGATAAGCTCGCGGCTGATCGAGTTGCAACAGTAATCAGTTGATTTGCCACT
B7: Linda virus (nucleic acid)
DNA: GTATAGCAGCAGTAGCTCAAGGCTGCTATACGATTGGACATACCAAATTCCAATTGGTGTTAGGGACCACCTAGGTGAAGGCCGACGACAGGTAGCCATTCCTGTTAGTAGGACGAACCGTTATGGTGGACTGGTTGCTCAGGTGAGCAGGCTGCAATGCGTAAGTGGTGAGTACACCACAGCCGTCAAAGGTGCCACTGGTAAGGATCACCCACTGGCGATGCCTTGTGGACGGGGGCGTGCCCAACGCAATGTTAGCGGTGGCGGGGGCTGCCATCGTGAAAGCTAGGTCTTGATGGACCTTGTTGCCTGTACAGTCTGATAGGATGCCGGCGGATGCCCTGTGACAGCCAGTATAAAGAATATCCGTTGTGATTGCAC
B8: Harrier picornavirus 1 (nucleic acid)
DNA: GATGTGTGACGGTGTAATTACTTTCCGGATCCCACTTTCCTATTATAACTCTTTCATCCCAAGGTTAGGGAAAGAACCTGGCTCGGTACCACCAGACCCTCCGCCACGCTAGTGGACTCTCCGGAGATAACGGTACCCCCTTTGTAGTCACCTGTGCTGGTGAAGAACCACCTAGTATTGCTTGGGTGCGTGCCGCCTAGCTTCCATTTCTTCTGGAGCACTGTGCAATGAGGTTTCCCCACTTGGTAACAAGTGCCTCAGGTCCCGCAAGGATACTGTGGGGTGGTGTGACCGCAGGGAGCTGTCTCCACGGCTCCTCTAATGTTACGCCGCTATCCACAGGCCAGTGCGTGTCATCGATCCCGGATGACAGAGCTAGTATTGCGAACCCCCAAGTAAGAAAAGTGGCTAGTAACCTGATAGCTGGTGAAGAGGGTGGGTCAGTTGAGTAGATGCCCTAGAGGTACCCGAAAGGATCTGACTAGGGACCCGTGACTATACATTAGGTAAACCGGGTATAAAAACCATGAAAAACTGACCACTTTTCTTTTAACCTCTTCTTTCTTTTTATGTGTGTTAAGTGTTTTGAGTTTGGACTGTACCTTGCCCGCCTTTCTTGGATTTTCTCTATCGCTCTTCTTACACCTACTGTTATCAAGGCACTCTTTAGAGATA
B9: Hepacivirus P (nucleic acid, listed as Hepacivirus sp.)
DNA: ACATGGGGGGGGGCTGACAGTGAGTACACTGTGCCAAGCAGGTGCTACGCTATGCCTAGGTGCTGCTGTAGGCCAAGGACATGTCCCAGTCATCCCAGGTGAGGGGGGGGGTTCCCCTCACCGCTGCCACTGCCTGATAGGGTCCTGCCGGAGGGTCTCGGTGTCCGGCTGTAC
B10: Mumps virus (nucleic acid, listed as Mumps orthorubulavirus)
DNA: ACCAAGGGGAAAATGAAGATGGGATGTTGGTAGAACAAATAGTGTAAGAAACAGTAAGCCCGGAAGTGGTGTTTTGCGATTTCGAGGCCGGGCTCGATCCTCACCTTTCATTGTCGATAGGGGACATTTTGACACTACCTGGAAA
B11: Kagoshima-2-24-KoV (nucleic acid, listed as Kobuvirus sp.)
DNA: TATAGTTTGCCTGTTTCTCGCACCGTTACCGCTCGTTCGGGAATGTGAAACTGGCACCCCTCCTCTCCCCTACCACCCTTTCTCCTTCGCCCCCATTCATAATTTACAACGCCGCACACAGCGGCGGCCGCCAAGGGCTAGCCTGGCGGTTATAAAAGGAACCTGGGTCTTTCCCTCTTCAAGCCAAAAGGTAGGTTCCCTGTGTCCCTGAATGCTCGGTGAGGAATGCTGCACCGTAACGCTTTGTGAAGTGTTTGCAAGTTCTGGCCCGGCAAGCCTACAGAGTGCTGTGATCCGCTGCGGACGCCATCCTGGTAACAGGACCCCCAGTGTGCGCAACAGTATGTTCAGACTTCGGTTTGTTCACTTGCTTTCATGGACCATTGCGCGAAAGTGCGTGCGCCATATCCCTGTACTTCAGGTGTGCTTCTCTGGACCCTAGGAATGCTGCGAAGGTACCCCGTTTCGGCGGGATCTGATCGCAGGCTAATTGTCTATGGGTTCAGTTTCCTTTTTCTTTACTCCACAATTGACTGCTTAACTGACTCTGGATCTTGTGCTTCCACTGCTCTTTCTGCTCTCAAAACGGCTTCACTTACCAACTCTCACCTTTCGACCAACACCATTTACACACTAACTTTTTTCGACTCTTCTGACTCCTGGCTTGGTGAAGAC

system: HEK293 cells; format: cell-based, human; details: luminescence from secreted Gluc in supernatant 24 hours after transfection of HEK293 cells; circular RNA encoding Gluc with the named IRES (UTR truncated to 675 nt)

Row | Molecule | Expression
1 | B1 | 9.32E+04
2 | B2 | 1.95E+05
3 | B3 | 9.00E+04
4 | B4 | 4.15E+05
5 | B5 | 6.05E+06
6 | B6 | 1.24E+05
7 | B7 | 7.37E+05
8 | B8 | 1.47E+05
9 | B9 | 6.04E+05
10 | B10 | 1.47E+05
11 | B11 | 9.30E+07
